Article PMC8860565, “Molecular Insights into How the Dimetal Center in Dihydropyrimidinase Can Bind the Thymine Antagonist 5-Aminouracil: A Different Binding Mode from the Anticancer Drug 5-Fluorouracil” (Bioinorganic Chemistry and Applications, 2022)

Biological target: the molecule itself
Experiment: crystal structure; hanging drop vapor diffusion, room temperature, 16% PEG 8000, 100 mM HEPES, 200 mM calcium acetate, 200 μM 5-AU, pH 7.5; two monomers in the asymmetric unit

B1: Pseudomonas aeruginosa dihydropyrimidinase (enzyme)
chain: MSLLIRGATVVTHEESYRADVLCANGLIQAIGENLETPSGCDVLDGGGQYLMPGGIDPHTHMQLPFMGTVASEDFFSGTAAGLAGGTTSIIDFVIPNPRQSLLEAFHTWRGWAQKSAADYGFHVAITWWSDEVAREMGELVAQHGVNSFKHFMAYKNAIMAADDTLVASFERCLELGAVPTVHAENGELVFHLQQKLLAQGLTGPEAHPLSRPPQVEGEAASRAIRIAETLGTPLYLVHISSREALDEIAYARAKGQPVYGEVLAGHLLLDDSVYRHPDWATAAGYVMSPPFRPVEHQEALWRGLQSGNLHTTATDHCCFCAEQKAMGRDDFSKIPNGTAGIEDRMALLWDAGVNSGRLSMHEFVALTSTNTAKIFNLFPRKGAIRVGADADLVLWDPQGSRTLSAATHHQRVDFNIFEGRTVRGIPSHTISQGKLLWAAGDLRAEPGAGRYVERPAYPSVYEVLGRRAERQRPVAVER
modifications: carbamylated Lys150 (Kcx150)
notes: dihydropyrimidinase of Pseudomonas aeruginosa (PaDHPase), wild type; Binuclear Zn centre (Znα, Znβ) in each monomer; also called PaDHPase; DHPase
B1: binds.
